Test results as given in patent publication US20230416330A1, “Optimized GIP Peptide Analogues” (Antag Therapeutics ApS, priority 2019, published 2023).
Starred links: 1 amine or outer side, 2 acyl side, 3 side chain; linkers in the order of their positions; H or OH if unused. Non-standard residues stand in square brackets, D forms with d. Residues, ends and D or L forms follow the SMILES beside them. Groups on a side chain read outwards from the residue. No end group written: not given here. *: point of attachment. C18 diacid = O=C(O)CCCCCCCCCCCCCCCCC(=O)*; C16 diacid = O=C(O)CCCCCCCCCCCCCCC(=O)*; γGlu = O=C(O)[C@H](CCC(=O)[*:2])N[*:1]; Glutaryl = O=C(CCCC(=O)[*:2])[*:1]; Nle = CCCC[C@H](N)C(=O)O; AEEA = NCCOCCOCC(=O)O; Aib = CC(C)(N)C(=O)O

T1: human GIP receptor (Homo sapiens, UniProt P48546)
T1 construct: host or cells: HEK-293 cells, transient transfection (Lipofectamine 2000), cDNA in pCMV-Script vector
T1 sequence (P48546 22-466): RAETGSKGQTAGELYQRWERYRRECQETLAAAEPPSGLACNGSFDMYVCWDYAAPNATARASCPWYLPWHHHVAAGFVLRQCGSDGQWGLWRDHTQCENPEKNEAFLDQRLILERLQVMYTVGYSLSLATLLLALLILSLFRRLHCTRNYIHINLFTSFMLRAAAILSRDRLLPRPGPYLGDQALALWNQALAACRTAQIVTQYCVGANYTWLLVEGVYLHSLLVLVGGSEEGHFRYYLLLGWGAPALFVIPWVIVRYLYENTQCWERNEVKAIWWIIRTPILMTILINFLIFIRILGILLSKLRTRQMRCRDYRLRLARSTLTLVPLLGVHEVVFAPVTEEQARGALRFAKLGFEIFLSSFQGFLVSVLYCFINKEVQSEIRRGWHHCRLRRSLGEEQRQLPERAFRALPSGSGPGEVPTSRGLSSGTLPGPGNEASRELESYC

T2: human GIP receptor (human, UniProt P48546 22-466)
T2 sequence (looked up): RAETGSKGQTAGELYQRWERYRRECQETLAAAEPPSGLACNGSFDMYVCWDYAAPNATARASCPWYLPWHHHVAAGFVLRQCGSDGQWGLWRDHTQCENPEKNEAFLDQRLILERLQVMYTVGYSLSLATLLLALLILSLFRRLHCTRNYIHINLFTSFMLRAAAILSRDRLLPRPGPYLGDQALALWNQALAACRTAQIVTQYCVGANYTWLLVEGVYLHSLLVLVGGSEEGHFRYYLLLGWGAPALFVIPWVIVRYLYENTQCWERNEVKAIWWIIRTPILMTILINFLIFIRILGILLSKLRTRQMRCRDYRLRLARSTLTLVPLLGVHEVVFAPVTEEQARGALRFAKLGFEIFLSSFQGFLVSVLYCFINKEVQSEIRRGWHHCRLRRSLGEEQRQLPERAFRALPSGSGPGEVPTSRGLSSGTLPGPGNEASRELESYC


What was measured:
human GIP receptor [1] = target: T1, human GIP receptor; test: cAMP assay Alternative 1 (CisBio assay), GIPR antagonism; type: cell-based; details: for cAMP antagonism % inhib: Table 2B, % inhibition of Emax
Description: HEK293 cells were cultured in 10% CO2 and 37° C. in Dulbecco's modified Eagle's medium supplemented with 10% fetal bovine serum, 2 mM glutamine, 180 units/ml penicillin, and 45 µg/ml streptomycin. Transient transfection with hGIPR for the CisBio assay from Table 2C was performed by using Lipofectamine 2000.
The in vitro functional activity of compounds towards human GIP receptor can also be determined in HEK-293 cells transiently expressing the receptor. On the day of the assay, cells were resuspended in HBSS buffer (Gibco, 14025-50) supplemented with […] (Gibco, 15630-106), 0.1% Pluronic F-68 (Gibco, 24040-032) and 0.1% casein (Sigma, C4765), and plated in 384-well plates at a density of 5000 cells/well. The GIP peptide analogues of the present disclosure were diluted in HBSS buffer supplemented with 20 mM HEPES, 0.1% pluronic, 0.1% casein and 500 uM IBMX. […] The resulting decrease in intracellular cAMP was quantitatively determined using the CisBio cAMP Dynamic 2 HTRF Assay Kit. The assay is based on a competition between native cAMP produced by cells and cAMP labeled with the dye d2 for binding to a cryptate labeled antibody. The specific signal (i.e. energy transfer signal) is inversely proportional to the concentration of cAMP in the sample.
The cAMP-d2 conjugate and the antibody anti-cAMP-Cryptate, both diluted in lysis buffer provided in the kit, were added to the cells according to the manufacturer's protocol. The resulting competitive assay was incubated for 60 minutes at room temperature, and the signal was detected by using a PerkinElmer Envision® instrument with excitation at 320 nm and emission at 665 nm and 620 nm. The HTRF ratio (emission at 665 nm/620 nm*10,000) is inversely proportional to the amount of cAMP present and is converted to nM cAMP per well using a cAMP standard curve. The dose-response curves were fitted using the non-linear regression analysis (four-logistic parameter equation) in GraphPad Prism, whereby pIC50 values were estimated. To test for agonistic properties at the GIP receptor, compounds were diluted and added to cells as described above and incubated for 30 min at 37° C. The resulting increase in intracellular cAMP was determined using the CisBio cAMP Dynamic 2 HTRF Assay Kit as described above.
The dose-response curves were fitted using the non-linear regression analysis (four-logistic parameter equation) in GraphPad Prism, whereby pIC50 values were estimated.

human GIP receptor [2] = target: T2, human GIP receptor; test: cell-based or functional assay

Molecule | cAMP antagonism % inhib (human GIP receptor [1]) [%] | IC50 (human GIP receptor [1]) [nM] | cAMP antagonism % inhib (CisBio assay) (human GIP receptor [2]) [%] | cAMP antagonism nM (IC50, CisBio assay) (human GIP receptor [2]) [nM] | cAMP antagonism pIC50 (CisBio assay) (human GIP receptor [2])
CC[C@H](C)[C@H](NC(=O)[C@H](CO)NC(=O)[C@H](Cc1ccc(O)cc1)NC(=O)[C@H](CC(=O)O)NC(=O)[C@H](CO)NC(=O)[C@@H](NC(=O)[C@H](Cc1ccccc1)NC(=O)[C@@H](NC(=O)CNC(=O)[C@@H](N)CCC(=O)O)[C@@H](C)O)[C@@H](C)CC)C(=O)N[C@@H](C)C(=O)N[C@@H](CC(C)C)C(=O)N[C@@H](CC(=O)O)C(=O)N[C@@H](CCCCN)C(=O)N[C@H](C(=O)N[C@@H](CCCCNC(=O)COCCOCCNC(=O)COCCOCCNC(=O)CC[C@H](NC(=O)CCCCCCCCCCCCCCCCC(=O)O)C(=O)O)C(=O)N[C@@H](CCC(N)=O)C(=O)N[C@@H](CCC(N)=O)C(=O)N[C@@H](CC(=O)O)C(=O)N[C@@H](Cc1ccccc1)C(=O)N[C@H](C(=O)N[C@@H](CCC(=O)O)C(=O)N[C@@H](Cc1c[nH]c2ccccc12)C(=O)N[C@@H](CC(C)C)C(=O)N[C@@H](CC(C)C)C(=O)N[C@@H](C)C(=O)N[C@@H](CCC(N)=O)C(=O)N[C@@H](CCCCN)C(=O)N1CCC[C@H]1C(=O)N[C@@H](CO)C(=O)N[C@@H](CO)C(=O)NCC(=O)N[C@@H](C)C(=O)N1CCC[C@H]1C(=O)N1CCC[C@H]1C(=O)N1CCC[C@H]1C(=O)N[C@@H](CO)C(=O)O)C(C)C)[C@@H](C)CC [AT682] (H-EGTFISDYSIALDKIK([AEEA-AEEA-γGlu-C18 diacid])QQDFVEWLLAQKPSSGAPPPS-OH; N-terminus assumed) | 89 |  |  |  | 
CC[C@H](C)[C@H](NC(=O)[C@H](CO)NC(=O)[C@H](Cc1ccc(O)cc1)NC(=O)[C@H](CC(=O)O)NC(=O)[C@H](CO)NC(=O)[C@@H](NC(=O)[C@H](Cc1ccccc1)NC(=O)[C@@H](NC(=O)CNC(=O)[C@@H](N)CCC(=O)O)[C@@H](C)O)[C@@H](C)CC)C(=O)N[C@@H](C)C(=O)N[C@@H](CCSC)C(=O)N[C@@H](CC(=O)O)C(=O)N[C@@H](CCCCN)C(=O)N[C@H](C(=O)N[C@@H](CCCCNC(=O)CCCCCCCCCCCCCCC(=O)O)C(=O)N[C@@H](CCC(N)=O)C(=O)N[C@@H](CCC(N)=O)C(=O)N[C@@H](CC(=O)O)C(=O)N[C@@H](Cc1ccccc1)C(=O)N[C@H](C(=O)N[C@@H](CCC(=O)O)C(=O)N[C@@H](Cc1c[nH]c2ccccc12)C(=O)N[C@@H](CC(C)C)C(=O)N[C@@H](CC(C)C)C(=O)N[C@@H](C)C(=O)N[C@@H](CCC(N)=O)C(=O)N[C@@H](CCCCN)C(=O)N1CCC[C@H]1C(=O)N[C@@H](CO)C(=O)N[C@@H](CO)C(=O)NCC(=O)N[C@@H](C)C(=O)N1CCC[C@H]1C(=O)N1CCC[C@H]1C(=O)N1CCC[C@H]1C(=O)N[C@@H](CO)C(=O)O)C(C)C)[C@@H](C)CC [AT617] (H-EGTFISDYSIAMDKIK(C16 diacid)QQDFVEWLLAQKPSSGAPPPS-OH; N-terminus assumed) | 91 | 0.794 |  |  | 
CCCC[C@H](NC(=O)[C@H](C)NC(=O)[C@@H](NC(=O)[C@H](CO)NC(=O)[C@H](Cc1ccc(O)cc1)NC(=O)[C@H](CC(=O)O)NC(=O)[C@H](CO)NC(=O)[C@@H](NC(=O)[C@H](Cc1ccccc1)NC(=O)[C@@H](NC(=O)CNC(=O)CCCC(=O)O)[C@@H](C)O)[C@@H](C)CC)[C@@H](C)CC)C(=O)N[C@@H](CC(=O)O)C(=O)N[C@@H](CCCCN)C(=O)N[C@H](C(=O)N[C@@H](CCCCNC(=O)CCCCCCCCCCCCCCC(=O)O)C(=O)N[C@@H](CCC(N)=O)C(=O)N[C@@H](CCC(N)=O)C(=O)N[C@@H](CC(=O)O)C(=O)N[C@@H](Cc1ccccc1)C(=O)N[C@H](C(=O)N[C@@H](CCC(=O)O)C(=O)N[C@@H](Cc1c[nH]c2ccccc12)C(=O)N[C@@H](CC(C)C)C(=O)N[C@@H](CC(C)C)C(=O)N[C@@H](C)C(=O)N[C@@H](CCC(N)=O)C(=O)N[C@@H](CCCCN)C(=O)N1CCC[C@H]1C(=O)N[C@@H](CO)C(=O)N[C@@H](CO)C(=O)NCC(=O)N[C@@H](C)C(=O)N1CCC[C@H]1C(=O)N1CCC[C@H]1C(=O)N1CCC[C@H]1C(=O)N[C@@H](CO)C(=O)O)C(C)C)[C@@H](C)CC [AT700] (Glutaryl-GTFISDYSIA[Nle]DKIK(C16 diacid)QQDFVEWLLAQKPSSGAPPPS-OH) | 89 |  |  |  | 
Glutaryl-GTFISDYSIA[Nle]DKIK(C16 diacid)QQDFVEWLLAQKPSSGAPPPS-OH [AT700] |  |  | 89 | 0.708 | 9.2
EGTFISEYSI[Aib][Nle]EKIK([AEEA-AEEA-γGlu-C18 diacid])QQEFVEWLLAQKPSSGAPPPS-OH (N-terminus assumed; SMILES CCCC[C@H](NC(=O)C(C)(C)NC(=O)[C@@H](NC(=O)[C@H](CO)NC(=O)[C@H](Cc1ccc(O)cc1)NC(=O)[C@H](CCC(=O)O)NC(=O)[C@H](CO)NC(=O)[C@@H](NC(=O)[C@H](Cc1ccccc1)NC(=O)[C@@H](NC(=O)CNC(=O)[C@@H](N)CCC(=O)O)[C@@H](C)O)[C@@H](C)CC)[C@@H](C)CC)C(=O)N[C@@H](CCC(=O)O)C(=O)N[C@@H](CCCCN)C(=O)N[C@H](C(=O)N[C@@H](CCCCNC(=O)COCCOCCNC(=O)COCCOCCNC(=O)CC[C@H](NC(=O)CCCCCCCCCCCCCCCCC(=O)O)C(=O)O)C(=O)N[C@@H](CCC(N)=O)C(=O)N[C@@H](CCC(N)=O)C(=O)N[C@@H](CCC(=O)O)C(=O)N[C@@H](Cc1ccccc1)C(=O)N[C@H](C(=O)N[C@@H](CCC(=O)O)C(=O)N[C@@H](Cc1c[nH]c2ccccc12)C(=O)N[C@@H](CC(C)C)C(=O)N[C@@H](CC(C)C)C(=O)N[C@@H](C)C(=O)N[C@@H](CCC(N)=O)C(=O)N[C@@H](CCCCN)C(=O)N1CCC[C@H]1C(=O)N[C@@H](CO)C(=O)N[C@@H](CO)C(=O)NCC(=O)N[C@@H](C)C(=O)N1CCC[C@H]1C(=O)N1CCC[C@H]1C(=O)N1CCC[C@H]1C(=O)N[C@@H](CO)C(=O)O)C(C)C)[C@@H](C)CC) [AT696] |  |  | 97 | 0.584 | 9.2
Glutaryl-GTFISDYSIA[Nle]DKIK([AEEA-AEEA-γGlu-C18 diacid])QQDFVEWLLAQKPSSGAPPPS-OH [AT702] |  |  | 85 | 3.55 | 8.5
